The source of these data is the Human Domainome abundance scans (Beltran et al. 2025).

Sequences and labels used below:
B1: Zinc finger homeobox protein 4, residues 2562 to 2617; numbered along this chain, Q86UP3 (parent)
chain: RLRTTITPEQLEILYEKYLLDSNPTRKMLDHIAREVGLKKRVVQVWFQNTRARERK

± gives the uncertainty stated by the source.

The variants in this series derive from B1. Briefly: abundance fitness (aPCA) (normalised: wild type 0, dead -1); higher = more abundant; growth selection in yeast, the domain comes from the species named. As to conditions: Homo sapiens.
With L20N, the abundance fitness is -0.122 ± 0.084.

Regarding L20W, the abundance fitness was -0.124 ± 0.074.

L20I: the abundance fitness is -0.079 ± 0.072.

Consider L20K, for which the abundance fitness came to 0.035 ± 0.11.

Turning to K17T, the abundance fitness was -0.109 ± 0.14.

For K17Y, the abundance fitness amounted to 0.767 ± 0.29.

K17Q: the abundance fitness is -0.033 ± 0.12.

As for K17W, the abundance fitness was -0.58 ± 0.27.

Take K17E: the abundance fitness is -0.081 ± 0.28.

For the variant H31M, the abundance fitness is -0.169 ± 0.15.

Take H31G: the abundance fitness is -0.004 ± 0.074.

Turning to H31F, the abundance fitness was -0.266 ± 0.16.

For the variant H31I, the abundance fitness was 0.205 ± 0.15.

As for P8C, the abundance fitness was -0.54 ± 0.25.

As for P8F, the abundance fitness was -0.038 ± 0.17.

In the case of P8Y, the abundance fitness is -0.643 ± 0.38.

Consider P8H, for which the abundance fitness is -0.422 ± 0.42.

On to P8A, for which the abundance fitness came out at 0.076 ± 0.065.

With P8W, the abundance fitness is -0.177 ± 0.11.

With P8V, the abundance fitness worked out at 0.168 ± 0.099.

Take Q10F: the abundance fitness was -0.941 ± 0.24.

On to Q10H, for which the abundance fitness is -0.466 ± 0.071.

With Q10P, the abundance fitness is -0.869 ± 0.15.

Consider K56G, for which the abundance fitness turned out to be 0.184 ± 0.34.

For the variant K56A, the abundance fitness was -0.241 ± 0.46.

Regarding K56M, the abundance fitness is -0.023 ± 0.3.

Consider K56I, for which the abundance fitness is -0.305 ± 0.5.

As to A52R, the abundance fitness is -0.321 ± 0.071.

Take A52G: the abundance fitness is -0.096 ± 0.054.

For the variant A52E, the abundance fitness stood at 0.283 ± 0.077.

Take A52Q: the abundance fitness was -0.035 ± 0.064.

For L14N, the abundance fitness was found to be 0.341 ± 0.39.

Consider L14P, for which the abundance fitness is -0.658 ± 0.1.

On to L14A, for which the abundance fitness is -0.765 ± 0.093.

For the variant L14H, the abundance fitness was -0.846 ± 0.18.

Turning to L14V, the abundance fitness is -0.945 ± 0.083.

In the case of L14G, the abundance fitness is -0.773 ± 0.082.

In the case of L14D, the abundance fitness is -0.754 ± 0.26.

As for T7M, the abundance fitness is -0.321 ± 0.14.

Turning to T7C, the abundance fitness is -0.258 ± 0.3.

As for T7R, the abundance fitness is -0.449 ± 0.07.

T7G: the abundance fitness is -0.155 ± 0.066.

Turning to T7V, the abundance fitness is -0.196 ± 0.11.

As to T7S, the abundance fitness is -0.111 ± 0.13.

In the case of R26V, the abundance fitness was 0.223 ± 0.11.

In the case of R26N, the abundance fitness was 1.41 ± 0.34.

Turning to R26S, the abundance fitness is 0.142 ± 0.084.

With R26Y, the abundance fitness is 0.867 ± 0.26.

Take Q48F: the abundance fitness is -0.389 ± 0.12.

Q48I: the abundance fitness is -0.693 ± 0.34.

With Q48D, the abundance fitness worked out at 0.392 ± 0.11.

In the case of Q48Y, the abundance fitness is -0.168 ± 0.13.

For Q48W, the abundance fitness was -0.556 ± 0.12.

Regarding Q48V, the abundance fitness is -0.152 ± 0.071.

On to Q48H, for which the abundance fitness is -0.139 ± 0.14.

E35F: the abundance fitness is -0.564 ± 0.094.

For the variant E35V, the abundance fitness is -0.306 ± 0.081.

Consider E35H, for which the abundance fitness was -0.302 ± 0.13.

With E35G, the abundance fitness is -0.258 ± 0.066.

In the case of E35D, the abundance fitness is -0.278 ± 0.12.

On to E35L, for which the abundance fitness was -0.25 ± 0.083.

Turning to E35I, the abundance fitness was -0.163 ± 0.094.

E35M: the abundance fitness is -0.279 ± 0.1.

Consider E35R, for which the abundance fitness is -0.654 ± 0.066.

For the variant E35S, the abundance fitness was -0.158 ± 0.059.

On to V43N, for which the abundance fitness was -0.829 ± 0.4.

Take V43C: the abundance fitness is -0.505 ± 0.12.

In the case of V43G, the abundance fitness was -0.89 ± 0.085.

As for V43K, the abundance fitness is -0.965 ± 0.27.

Take L2T: the abundance fitness is 0.105 ± 0.12.

For L2G, the abundance fitness is -0.132 ± 0.079.

For L2K, the abundance fitness was 0.24 ± 0.1.

As for L2D, the abundance fitness turned out to be 0.31 ± 0.13.

In the case of L2R, the abundance fitness is -0.176 ± 0.076.

Take L2Q: the abundance fitness is -0.603 ± 0.2.

As to L2S, the abundance fitness was 0.161 ± 0.068.

T4P: the abundance fitness was 0.037 ± 0.11.

Take T4S: the abundance fitness is -0.057 ± 0.07.

Regarding T4N, the abundance fitness was -0.488 ± 0.18.

In the case of T4Q, the abundance fitness is -0.096 ± 0.12.

Regarding E54L, the abundance fitness was -0.201 ± 0.056.

For the variant E54V, the abundance fitness was -0.523 ± 0.063.

On to E54P, for which the abundance fitness is -0.545 ± 0.087.

For E54G, the abundance fitness was -0.362 ± 0.064.

In the case of E54W, the abundance fitness was -0.307 ± 0.11.

Regarding E54F, the abundance fitness turned out to be 0.025 ± 0.17.

Take E54S: the abundance fitness was -0.254 ± 0.088.

Consider E54I, for which the abundance fitness was -0.283 ± 0.34.

Turning to L19S, the abundance fitness was -0.034 ± 0.071.

Regarding L19G, the abundance fitness is -0.023 ± 0.049.

For the variant L19V, the abundance fitness is -0.055 ± 0.064.

In the case of L19A, the abundance fitness was -0.094 ± 0.077.

With V36E, the abundance fitness was -0.671 ± 0.11.

V36H: the abundance fitness was -0.418 ± 0.23.

On to V36G, for which the abundance fitness was -0.812 ± 0.1.

With V36R, the abundance fitness was -1.03 ± 0.14.

Regarding V36N, the abundance fitness was -0.415 ± 0.086.

Consider V36W, for which the abundance fitness was -0.638 ± 0.11.

On to V36A, for which the abundance fitness is -0.103 ± 0.076.

Turning to M28Q, the abundance fitness is -0.067 ± 0.059.

Turning to M28F, the abundance fitness is -0.591 ± 0.1.

T50V: the abundance fitness is -0.068 ± 0.071.

Turning to T50A, the abundance fitness is 0.041 ± 0.073.

For T50R, the abundance fitness worked out at 0.08 ± 0.056.

For the variant T50K, the abundance fitness is 0.028 ± 0.072.

Take R3N: the abundance fitness came out at 0.829 ± 0.18.

With R3G, the abundance fitness is 0.194 ± 0.062.

Regarding R3P, the abundance fitness is -0.004 ± 0.11.

Turning to R3S, the abundance fitness was 0.301 ± 0.073.

Take R3I: the abundance fitness came to 0.319 ± 0.12.

For R3K, the abundance fitness was 0.288 ± 0.11.

Consider W46D, for which the abundance fitness is -0.536 ± 0.16.

As to W46H, the abundance fitness was -0.878 ± 0.4.

As for W46Q, the abundance fitness was -1.05 ± 0.25.

As to W46L, the abundance fitness is -0.887 ± 0.14.

Consider W46P, for which the abundance fitness was -0.802 ± 0.088.

With W46K, the abundance fitness is -1.03 ± 0.15.

Turning to S22N, the abundance fitness was -0.429 ± 0.15.

S22E: the abundance fitness came out at 0.248 ± 0.1.

Turning to S22P, the abundance fitness is -0.402 ± 0.14.

For the variant S22R, the abundance fitness was -0.358 ± 0.067.

With V42R, the abundance fitness is -0.413 ± 0.068.

For V42T, the abundance fitness was -0.187 ± 0.12.

With V42Y, the abundance fitness is -0.598 ± 0.22.

Consider V42S, for which the abundance fitness is -0.348 ± 0.059.

Take V42E: the abundance fitness worked out at 0.273 ± 0.093.

In the case of V42A, the abundance fitness is -0.197 ± 0.097.

On to V42C, for which the abundance fitness is -0.179 ± 0.093.

Take V42L: the abundance fitness is -0.126 ± 0.083.

As to N49W, the abundance fitness was -0.422 ± 0.063.

Regarding N49H, the abundance fitness was -0.423 ± 0.16.

On to N49A, for which the abundance fitness came out at 0.043 ± 0.08.

Regarding G37L, the abundance fitness is -0.71 ± 0.073.

G37A: the abundance fitness was -0.258 ± 0.098.

Consider G37K, for which the abundance fitness was -0.169 ± 0.06.

As to G37S, the abundance fitness is -0.359 ± 0.082.

G37W: the abundance fitness is -1.1 ± 0.28.

In the case of G37V, the abundance fitness was -0.643 ± 0.072.

As for Y18L, the abundance fitness was -0.439 ± 0.13.

For the variant Y18I, the abundance fitness was -0.246 ± 0.27.

On to Y18Q, for which the abundance fitness was -0.839 ± 0.43.

For the variant Y18F, the abundance fitness is 0.425 ± 0.18.

Turning to Y18D, the abundance fitness is -1.13 ± 0.4.

In the case of Y18E, the abundance fitness is -0.943 ± 0.22.

With T25I, the abundance fitness is -0.526 ± 0.44.

Turning to T25A, the abundance fitness is -0.384 ± 0.11.

T25L: the abundance fitness is -0.546 ± 0.13.

For T25R, the abundance fitness was -0.72 ± 0.17.

As to T25C, the abundance fitness worked out at 0.181 ± 0.15.

As for V45F, the abundance fitness was -0.738 ± 0.2.

As to K27N, the abundance fitness was -0.112 ± 0.12.

In the case of K27V, the abundance fitness stood at 0.099 ± 0.086.

With K27C, the abundance fitness was -0.096 ± 0.11.

As to K27Q, the abundance fitness was 0.082 ± 0.092.

As for K27D, the abundance fitness amounted to 0.478 ± 0.1.

Consider L29Q, for which the abundance fitness is -0.124 ± 0.068.

As to L29P, the abundance fitness was -0.752 ± 0.18.

With L29E, the abundance fitness came out at 0.155 ± 0.082.

Take L29I: the abundance fitness was -0.033 ± 0.063.

With E12L, the abundance fitness was -0.002 ± 0.07.

In the case of E12N, the abundance fitness was -0.075 ± 0.25.

As for E12V, the abundance fitness is -0.062 ± 0.062.

With E12M, the abundance fitness was -0.075 ± 0.087.

Take E12C: the abundance fitness is -0.224 ± 0.11.

E12W: the abundance fitness is -0.496 ± 0.077.

With A33T, the abundance fitness is -0.331 ± 0.22.

Consider A33L, for which the abundance fitness was -0.732 ± 0.2.
